# Measurements reported in patent publication US20230322900A1.
# Tests used:
# [1] = target: FVIII-His-Myc (non-XTEN containing FVIII-His-Myc protein) (human); assay: sandwich ELISA, antibody capture, anti-Myc detection, normalised to anti-His capture
# [2] = target: FVIII-XTEN-His-Myc, XTEN insertion A1, 18, AE144 (human); assay: as above
# [3] = target: FVIII-XTEN-His-Myc, XTEN insertion A1, 18, AG144 (human); assay: as above
# [4] = target: FVIII-XTEN-His-Myc, XTEN insertion A1, 26, AE144 (human); assay: as above
# [5] = target: FVIII-XTEN-His-Myc, XTEN insertion A1, 26, AG144 (human); assay: as above
# [6] = target: FVIII-XTEN-His-Myc, XTEN insertion A1, 40, AE144 (human); assay: as above
# [7] = target: FVIII-XTEN-His-Myc, XTEN insertion A1, 40, AG144 (human); assay: as above
# [8] = target: FVIII-XTEN-His-Myc, XTEN insertion A2, 399, AE144 (human); assay: as above
# [9] = target: FVIII-XTEN-His-Myc, XTEN insertion A2, 403, AE144 (human); assay: as above
# [10] = target: FVIII-XTEN-His-Myc, XTEN insertion A2, 403, AG144 (human); assay: as above
# [11] = target: FVIII-XTEN-His-Myc, XTEN insertion A3, 1656, AG144 (human); assay: as above
# [12] = target: pBC0114 BDD FVIII base construct (pcDNA4-FVIII_4-…-Myc-SPATG-His) (human) (UniProt P00451); assay: cell-based or functional assay
# [13] = target: pBC0149 (human) (UniProt P00451); assay: cell-based or functional assay
Concentration on aFVIII/Myc ÷ concentration on aHis/Myc [1] [%],Concentration on aFVIII/Myc ÷ concentration on aHis/Myc [2] [%],Concentration on aFVIII/Myc ÷ concentration on aHis/Myc [3] [%],Concentration on aFVIII/Myc ÷ concentration on aHis/Myc [4] [%],Concentration on aFVIII/Myc ÷ concentration on aHis/Myc [5] [%],Concentration on aFVIII/Myc ÷ concentration on aHis/Myc [6] [%],Concentration on aFVIII/Myc ÷ concentration on aHis/Myc [7] [%],Concentration on aFVIII/Myc ÷ concentration on aHis/Myc [8] [%],Concentration on aFVIII/Myc ÷ concentration on aHis/Myc [9] [%],Concentration on aFVIII/Myc ÷ concentration on aHis/Myc [10] [%],Concentration on aFVIII/Myc ÷ concentration on aHis/Myc [11] [%],Ratio to Control [12],Ratio to Control [13],Relative Remaining Activity [13],Substance
104,130,131,87,147,147,153,140,141,129,158,,,,ESH8 anti-FVIII antibody (American Diagnostica Inc.)
,,,,,,,,,,,1,0.8,0.1,GMA8008 FVIII inhibitor antibody
92,129,150,155,157,137,164,100,103,104,153,1,1.3,0.2,GMA-8021 anti-FVIII monoclonal antibody (Green Mountain Antibodies)
